Measurements: article PMC4702122, “Embelin binds to human neuroserpin and impairs its polymerisation” (Scientific Reports, 2016)
Where “and” joins values, the source holds several entries; their conditions need not be identical. Equal entries are not always repeated.

Key:
[1] = target: T1, 2ctPA (active form of recombinant tPA) (Homo sapiens, UniProt P00750); experiment: tPA hydrolytic activity assay; assay type: biochemical; details: direct inhibition stated, data not shown; conditions not given
T1 construct: gene PLAT
T1 sequence (P00750 36-562): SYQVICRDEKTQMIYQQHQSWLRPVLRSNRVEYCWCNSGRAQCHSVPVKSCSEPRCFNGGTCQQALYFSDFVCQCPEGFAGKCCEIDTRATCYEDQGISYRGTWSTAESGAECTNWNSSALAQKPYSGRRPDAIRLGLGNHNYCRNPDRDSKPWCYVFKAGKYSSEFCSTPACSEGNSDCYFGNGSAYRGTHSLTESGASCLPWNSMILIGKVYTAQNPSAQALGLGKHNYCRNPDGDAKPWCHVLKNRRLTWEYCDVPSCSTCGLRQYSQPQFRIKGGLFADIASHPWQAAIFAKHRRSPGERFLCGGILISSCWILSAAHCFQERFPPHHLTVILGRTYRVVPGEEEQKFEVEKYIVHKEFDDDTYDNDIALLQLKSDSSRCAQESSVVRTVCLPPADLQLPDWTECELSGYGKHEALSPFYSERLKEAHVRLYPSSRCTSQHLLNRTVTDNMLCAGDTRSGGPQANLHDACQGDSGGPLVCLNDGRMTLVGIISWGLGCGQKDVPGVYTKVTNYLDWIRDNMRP

[2] = target: Neuroserpin (SERPINI1), wild type, uncleaved (human) (UniProt Q99574); experiment: SEC-MALS; Nat incubated with EMB; peaks eluted at 13.7 and 12.5 ml; SEC-HPLC, 200 μL at 4 mg/mL
[3] = target: Neuroserpin (SERPINI1), wild type, uncleaved (human) (UniProt Q99574); experiment: native MS; nano-ESI-MS of the SEC peak at 12.5 ml of Nat incubated overnight at 20 °C with EMB; 100 mM ammonium acetate pH 8, 10-20 μM protein, declustering potential 300 V
[4] = target: Neuroserpin (SERPINI1), wild type, uncleaved (human) (UniProt Q99574); experiment: SEC; Nat (4 mg/ml) with 1.5 mM (saturated) EMB overnight at 4, 20, 37, 45, 55 °C; Superdex200 10/300 GL, 10 mM Tris HCl, 50 mM KCl, pH 8.0; fractions also by SDS-PAGE

Compound: CCCCCCCCCCCC1=C(O)C(=O)C=C(O)C1=O [EMB, embelin]
- tPA hydrolytic activity assay [1]: Due to direct inhibitory effect of EMB on tPA

Compound: Neuroserpin (SERPINI1), wild type, uncleaved (from UniProt Q99574 17-410) (natural protein)
- stoichiometry N [2]: 2
- stoichiometry N [3]: 3 and 4 and 2
- stoichiometry N [4]: 2 to 8
